Source: the supplement of paper PMC11780869

Tested on: Bacillus subtilis
Assay: cleaved RNA product abundance (RNA/gDNA barcode ratio) relative to median wild-type variant (ratio to wild type); higher = more accumulation of the downstream cleavage product
In short: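 Cleaved product abundance is expressed as the RNA:gDNA barcode ratio per construct, scaled to the median construct carrying the unmutated site. The constructs were barcoded, mutagenized RNase Y cleavage-site windows in truncated aprE or tetM reporter mRNAs integrated into the B. subtilis chromosome. Cultures grew in LB at 37°C from OD600 0.0003 to 0.3 before cleaved RNA was gel-selected and barcode-sequenced.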

[1] = experiment (reporter, strain, medium): exp 8a: truncated aprE reporter, strain BJT201 with 2% xylose (RNase J1 expressed), cleavage site: glnRA (positions -5 to +31 mutated)
[2] = experiment (reporter, strain, medium): exp 4a: truncated aprE reporter, strain BJT201 with 2% xylose (RNase J1 expressed), cleavage site: cggR-gapA (positions -7 to +36 mutated)
[3] = experiment (reporter, strain, medium): exp 2b: truncated aprE reporter, strain BJT200, cleavage site: cggR-gapA (positions -7 to +36 mutated)
[4] = experiment (reporter, strain, medium): exp 6: tetM reporter, strain 168, cleavage site: cggR-gapA (positions -7 to +36 mutated)

| Sequence | cleaved RNA product abundance [2] | further results |
| --- | --- | --- |
| CGACATGTCCCGCTTCTTTCATTATTCCATTAGCAATTGTTTTGCTATATACATTTACCTTTTAAGAGGAGGAAT |  | cleaved RNA product abundance [1]: 1.33 |
| ACAGACGAAGGAGCCGCAAAGATGTTATTAAGGGATGAATAATCCCTGAATATAAATATCTCTCACTTATTTAAA | 0.628 |  |
| ACAGACGAAGGAGCCGCAAGGAAGTTATTAAGGGATAAATAATCCCTCAATATAAATATCTCTCACTTATTTAAA | 0.919 | cleaved RNA product abundance [3]: 0.888 |
| CGACATGTCCCGCTTCTTTCATTAACCCGTTAGCAACTGTATTGCTATATACATTCACCTTTTAAGAGGAGGAAT |  | cleaved RNA product abundance [1]: 0.379 |
| CGACATGTCCCGCTTCTTTCATTAACCCGTTAGCAACTGTTTTGCCATATACATTTACCTTTTAAGAGGAGGAAT |  | cleaved RNA product abundance [1]: 0.158 |
| CGACATGTCCCGCTTCTTTCATTAATACGTTAGCAACTTTTTTGCTATATACATTTACCTTTTAAGAGGAGGAAT |  | cleaved RNA product abundance [1]: 0.721 |
| ACAGACGAAGGAGCCGCATAGAAGTTATTAAGGGATGAATAATCCGTCAATATAAATATCTCTCACTTATTTAAA | 0.235 |  |
| ACAGACGAAGGAGCCGCGAAGAAGTGATTAAGGGATGAATAATCCCTCAATATAAATATCTCTCACTTATTTAAA | 0.347 |  |
| CGACATGTCCCGCTTCTTTCATTAATCCGTTAGAAACTGCTTTGCTATATACATTTACCTTTTAAGAGGAGGAAT |  | cleaved RNA product abundance [1]: 0.146 |
| ACAGACGAAGGAGCCGCAAAGAAGTTATTAAGGGATGAATAATACCTTAATATAAATATCTCTCACTTATTTAAA | 0.424 |  |
| CGACATGTCCCGCTTCTTTCATTAATCCTTTAGCAACGGTTTTGCTATATACATTTACCTTTTAAGAGGAGGAAT |  | cleaved RNA product abundance [1]: 0.7 |
| CGACATGTCCCGCTTCTTTCATTACTCCGTTAGCAACTGTTTTGCTATATACATTTACTTTTTAAGAGGAGGAAT |  | cleaved RNA product abundance [1]: 1.59 |
| ACAGACGAAGGAGCCGCAAAGAAGTGATTAAGGGATGAATAATCCCTCAACATAAATATCTCTCACTTATTTAAA |  | cleaved RNA product abundance [3]: 0.293 |
| CGACATGTCCCGCTTCTTTCATTAATCCGTTAGTAACTGTTGTGCTATATACATTTACCTTTTAAGAGGAGGAAT |  | cleaved RNA product abundance [1]: 0.358 |
| ACAGACGAAGGAGCCGCAAAGAAGTTATTAAGGGATGAATCATCCCTTAATATAAATATCTCTCACTTATTTAAA | 0.46 |  |
| ACAGACGAAGGAGCCGCAATGAAGTTAATAAGGGATGAATAATCCTTCAATATAAATATCTCTCACTTATTTAAA | 0.263 |  |
| CGACATGTCCCGCTTCTTTCATTAATCCATAAGCAACTGTTTTGCTATATACATTTACCTTTTAAGAGGAGGAAT |  | cleaved RNA product abundance [1]: 0.462 |
| CGACATGTCCCGCTTCTTTCATTAATCCATTAGCAACTGTTTTGCTATATACATTTACGTTTTAAGAGGAGGAAT |  | cleaved RNA product abundance [1]: 0.903 |
| ACAGACGAAGGAGCCGCAAAGATGTTATTAAGGGATGAATAATCCCTCAAAATAAATATCTCTCACTTATTTAAA | 0.502 |  |
| ACAGACGAAGGAGCCGCAAAGACGTTATTAAGGGATGAATAATCCCCCAATATAAATATCTCTCACTTATTTAAA | 0.226 |  |
| CGACATGTCCCGCTTCTTTCATTAATCCGTTAGCATCTGTTTTTCTATATACATTTACCTTTTAAGAGGAGGAAT |  | cleaved RNA product abundance [1]: 0.273 |
| ACAGACGAAGGAGCCGCAAAGAAGTTATTAAGGGATGAATAACACCTCAATATAAATATCTCTCACTTATTTAAA | 0.164 |  |
| CGACATGTCCCGCTTCTTTCATTAATCCGTTAGCAACTGTTTTAATATATACATTTACCTTTTAAGAGGAGGAAT |  | cleaved RNA product abundance [1]: 0.589 |

| Sequence | cleaved RNA product abundance [2] | further results |
| --- | --- | --- |
| ACAGACGAAGGAGCCGCAAAGAAGTTATTAAAGGAAGAATAATCCCTCAATATAAATATCTCTCACTTATTTAAA | 0.112 | cleaved RNA product abundance [3]: 0.0711 |
| ACAGACGAAGGAGCCGCAAATAAGTTATTAAGGGATGAATAATCACTCAATATAAATATCTCTCACTTATTTAAA | 0.107 | cleaved RNA product abundance [3]: 0.118 |
| ACAGACGAAGGAGCCGCTAAGAAGTTATTAAGGGATGAATAATGCCTCAATATAAATATCTCTCACTTATTTAAA | 0.154 |  |
| ACAGACGAAGGAGCCGCAAAGAAGTTATTAAGGGATGAATCATGCCTCAATATAAATATCTCTCACTTATTTAAA | 0.251 | cleaved RNA product abundance [3]: 0.164 |
| ACAGACGAAGGAGCCGCAAAGAAGTTCTTAAGGGATGAATAATCCCTCAATATAAATATCTCTCACTTATTTAAA | 0.254 | cleaved RNA product abundance [3]: 0.168; cleaved RNA product abundance [4]: 0.299 |
| ACAGACGAAGGAGCCGCAAAGAAGTTATTAAGGGATTAATAATCCCTCGATATAAATATCTCTCACTTATTTAAA | 0.594 |  |
| ACAGACGAAGGAGCCGCAAAGAAGTTATTAAAGGATGAATAATCCCGCAATATAAATATCTCTCACTTATTTAAA | 0.219 |  |
| ACAGACGAAGGAGCCGCAAACAAGTTATTAAGGGATGAATAATCCCCCAATATAAATATCTCTCACTTATTTAAA | 0.137 |  |
| ACAGACGAAGGAGCCGCAAAAAAGTTATTAAGGGATGAATAACCCCTCAATATAAATATCTCTCACTTATTTAAA | 0.458 | cleaved RNA product abundance [3]: 0.455 |
| ACAGACGAAGGAGCCGCAAAGAAGTTATCTAGGGATGAATAATCCCTCAATATAAATATCTCTCACTTATTTAAA | 0.316 |  |
| ACAGACGAAGGAGCCGCAAAGAAGTTACTAACGGATGAATAATCCCTCAATATAAATATCTCTCACTTATTTAAA | 0.162 | cleaved RNA product abundance [3]: 0.0838 |
| ACAGACGAAGGAGCCGCAAAGAAGTTATTTAGGGATGAATAATCCCTCAATATAAATATCTCTCACTTATTTAAA | 0.799 | cleaved RNA product abundance [3]: 0.704; cleaved RNA product abundance [4]: 0.636 |
| ACAGACGAAGGAGCCGCAAAGCAGTTATTAAAGGATGAATAATCCCTCAATATAAATATCTCTCACTTATTTAAA |  | cleaved RNA product abundance [3]: 0.136 |
| ACAGACGAAGGAGCCGCATAGAAGTTATTAAGGGATGAATAATCCCTCAATATAAATATCTCTCACTTATTTAAA | 1.01 | cleaved RNA product abundance [3]: 1; cleaved RNA product abundance [4]: 1.06 |
| ACAGACGAAGGAGCCGCAAAGAAGTTATTAAGGGATGAATAACCCCTCTATATAAATATCTCTCACTTATTTAAA | 0.229 |  |
| CGACATGTCCCGCTTCTTTCATTAAACCGTTAGCAACTGTTTTGTTATATACATTTACCTTTTAAGAGGAGGAAT |  | cleaved RNA product abundance [1]: 0.313 |
| ACAGACGAAGGAGCCGCAAATAAGTTATCAAGGGATGAATAATCCCTCAATATAAATATCTCTCACTTATTTAAA | 0.278 |  |
| ACAGACGAAGGAGCCGCAAAGAAGTCATTAAAGGATGAATAATCCCTCAATATAAATATCTCTCACTTATTTAAA | 0.158 |  |
| ACAGACGAAGGAGCCGCAAAGAAGTTATTAAGGGATAAATAATCCCTCAATATAACTATCTCTCACTTATTTAAA | 0.156 |  |
| ACAGACGAAGGAGCCGCTAAGAAGTTATTAAGGGATGAATAATCCCTAAATATAAATATCTCTCACTTATTTAAA | 0.831 | cleaved RNA product abundance [3]: 0.745 |
| ACAGACGAAGGAGCCGCAAAGAAGTTATTAAGGGATGAATAATCCCTCAATATATAAATCTCTCACTTATTTAAA | 1.13 |  |
| ACAGACGAAGGAGCCGCAAAGAAATTATTAAGGAATGAATAATCCCTCAATATAAATATCTCTCACTTATTTAAA | 0.191 | cleaved RNA product abundance [3]: 0.101; cleaved RNA product abundance [4]: 0.104 |
| ACAGACGAAGGAGCCGCAAAGAAGTTATTTAGGGATGACTAATCCCTCAATATAAATATCTCTCACTTATTTAAA | 0.541 |  |
